This is an account of results in PMC7889650.

The assay deals with Nle-substituted 187-bp NCP (Xenopus laevis). Briefly: cryo-EM structure.

With “NSD2C-E1099K/T1150A (from UniProt O96028 661-1365) (domain or fragment)”, the stoichiometry N amounted to 1 NSD2 per NCP.
